Measurements taken from the supplement of paper PMC9428881.
± gives the standard error.

Assay: background-corrected fluorescence of 3'-dye-labeled ssDNA relative to brightest sequence (3'-GCGCG) (fraction); higher = brighter dye fluorescence (less quenching)
Summary of the method: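 Fluorescence values are background-corrected using unlabeled oligos and expressed relative to the brightest sequence. The single-stranded DNA was made on glass slides by light-directed phosphoramidite synthesis, each of 1024 permuted pentamers ending beside a 3' Cy3 or Cy5 dye. Scans at 532 or 635 nm were taken before and after overnight ethylenediamine/ethanol deprotection, and each value averages 10 features per array and at least 3 syntheses.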

Sequence | background-corrected fluorescence (dye: Cy3 (3' terminal)) | background-corrected fluorescence (dye: Cy5 (3' terminal))
TTTTTTCATGATGCTGCTCATTTTTTTTTTTTTTTGCAAG [GAACG] | 0.503 ± 0.04 | 0.422 ± 0.029
TTTTTTCATGATGCTGCTGATTTTTTTTTTTTTTTGCAAC [CAACG] | 0.469 ± 0.014 | 0.319 ± 0.017
TTTTTTCATGATGCTGCTGCTTTTTTTTTTTTTTTGCAAA [AAACG] | 0.599 ± 0.028 | 0.497 ± 0.03
TTTTTTCATGCGCAGCAGCATTTTTTTTTTTTTTTGATTT [TTTAG] | 0.531 ± 0.03 | 0.383 ± 0.029
TTTTTTCATGCGCAGCATCATTTTTTTTTTTTTTTGATTG [GTTAG] | 0.543 ± 0.0077 | 0.355 ± 0.024
TTTTTTCATGCGCAGCATGATTTTTTTTTTTTTTTGATTC [CTTAG] | 0.451 ± 0.026 | 0.317 ± 0.02
TTTTTTCATGCGCAGCATGCTTTTTTTTTTTTTTTGATTA [ATTAG] | 0.547 ± 0.022 | 0.424 ± 0.034
TTTTTTCATGCGCATCAGCATTTTTTTTTTTTTTTGATGT [TGTAG] | 0.653 ± 0.025 | 0.478 ± 0.04
TTTTTTCATGCGCATCATCATTTTTTTTTTTTTTTGATGG [GGTAG] | 0.62 ± 0.012 | 0.482 ± 0.024
TTTTTTCATGCGCATCATGATTTTTTTTTTTTTTTGATGC [CGTAG] | 0.522 ± 0.031 | 0.425 ± 0.03
TTTTTTCATGCGCATCATGCTTTTTTTTTTTTTTTGATGA [AGTAG] | 0.653 ± 0.035 | 0.518 ± 0.062
TTTTTTCATGCGCATGAGCATTTTTTTTTTTTTTTGATCT [TCTAG] | 0.456 ± 0.055 | 0.354 ± 0.017
TTTTTTCATGCGCATGATCATTTTTTTTTTTTTTTGATCG [GCTAG] | 0.545 ± 0.016 | 0.41 ± 0.025
TTTTTTCATGCGCATGATGATTTTTTTTTTTTTTTGATCC [CCTAG] | 0.398 ± 0.022 | 0.294 ± 0.027
TTTTTTCATGCGCATGATGCTTTTTTTTTTTTTTTGATCA [ACTAG] | 0.535 ± 0.034 | 0.43 ± 0.022
TTTTTTCATGCGCATGCGCATTTTTTTTTTTTTTTGATAT [TATAG] | 0.532 ± 0.024 | 0.382 ± 0.018
TTTTTTCATGCGCATGCTCATTTTTTTTTTTTTTTGATAG | 0.526 ± 0.03 | 0.425 ± 0.049

Sequence | background-corrected fluorescence (dye: Cy3 (3' terminal)) | background-corrected fluorescence (dye: Cy5 (3' terminal))
TTTTTTCATGCGCATGCTGATTTTTTTTTTTTTTTGATAC [CATAG] | 0.448 ± 0.026 | 0.334 ± 0.024
TTTTTTCATGCGCATGCTGCTTTTTTTTTTTTTTTGATAA [AATAG] | 0.587 ± 0.042 | 0.452 ± 0.031
TTTTTTCATGCTCAGCAGCATTTTTTTTTTTTTTTGAGTT | 0.621 ± 0.031 | 0.422 ± 0.024
TTTTTTCATGCTCAGCATCATTTTTTTTTTTTTTTGAGTG [GTGAG] | 0.578 ± 0.031 | 0.445 ± 0.054
TTTTTTCATGCTCAGCATGATTTTTTTTTTTTTTTGAGTC [CTGAG] | 0.469 ± 0.015 | 0.359 ± 0.017
TTTTTTCATGCTCAGCATGCTTTTTTTTTTTTTTTGAGTA [ATGAG] | 0.603 ± 0.026 | 0.486 ± 0.035
TTTTTTCATGCTCATCAGCATTTTTTTTTTTTTTTGAGGT [TGGAG] | 0.708 ± 0.038 | 0.56 ± 0.05
TTTTTTCATGCTCATCATCATTTTTTTTTTTTTTTGAGGG [GGGAG] | 0.759 ± 0.02 | 0.553 ± 0.041
TTTTTTCATGCTCATCATGATTTTTTTTTTTTTTTGAGGC [CGGAG] | 0.585 ± 0.015 | 0.465 ± 0.033
TTTTTTCATGCTCATCATGCTTTTTTTTTTTTTTTGAGGA [AGGAG] | 0.747 ± 0.023 | 0.669 ± 0.059
TTTTTTCATGCTCATGAGCATTTTTTTTTTTTTTTGAGCT [TCGAG] | 0.559 ± 0.024 | 0.41 ± 0.022
TTTTTTCATGCTCATGATCATTTTTTTTTTTTTTTGAGCG [GCGAG] | 0.654 ± 0.03 | 0.526 ± 0.059
TTTTTTCATGCTCATGATGATTTTTTTTTTTTTTTGAGCC [CCGAG] | 0.425 ± 0.012 | 0.312 ± 0.029
TTTTTTCATGCTCATGATGCTTTTTTTTTTTTTTTGAGCA [ACGAG] | 0.585 ± 0.025 | 0.43 ± 0.035
TTTTTTCATGCTCATGCGCATTTTTTTTTTTTTTTGAGAT [TAGAG] | 0.578 ± 0.051 | 0.439 ± 0.023
TTTTTTCATGCTCATGCTCATTTTTTTTTTTTTTTGAGAG | 0.6283 ± 0.0056 | 0.492 ± 0.024
TTTTTTCATGCTCATGCTGATTTTTTTTTTTTTTTGAGAC [CAGAG] | 0.476 ± 0.015 | 0.357 ± 0.018
